Measurements taken from the supplement of paper PMC7877785.
± gives the uncertainty stated by the source.

Assay: self-splicing fitness, log relative to wild type (ln ratio); higher = more splicing; Tetrahymena group I intron in knt gene, E. coli kanamycin selection, DiMSum; sequences stand for … in CUCUCU…GGAGGGAAAAGUUAUCAGGCAUGCACCUGGUAGCUAGUCUUUAAACCAAUAGAUUGCAUCGGUUUAAAAGGCAAGACCGUCAAAUUGCGGGAAAGGGGUCAACAGCCGUUCAGUACCAAGUCUCAGGGGAAACUUUGAGAUGGCCUUGCAAAGGGUAUGGUAAUAAGCUGACGGACAUGGUCCUAACCACGCAGCCAAGUCCUAAGUCAACAGAUCUUCUGUUGAUAUGGAUGCAGUUCACAGACUAAAUGUCGGUCGGGGAAGAUGUAUUCUUCUCAUAAGAUAUAGUCGGACCUCUCCUUAAUGGGAGCUAGCGGAUGAAGUGAUGCAACACUGGAGCCGCUGGGAACUAAUUUGUAUGCGAAAGUAUAUUGAUUAGUUUUGGAGUACUCGUGGUCG
Summary of the method: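 The eight P1ex-region nucleotides of an intron in the knt kanamycin-resistance gene on pET-22b(+) were all randomised and the library put into E. coli BL21(DE3). Six replicate transformations were grown overnight at 37°C or 30°C on LB agar with or without 25 μg/mL kanamycin, together with 100 μg/mL carbenicillin, 50 μM IPTG and 0.2% rhamnose. Colonies were pooled and amplicon-sequenced on an Illumina HiSeq 2500. Fitness from DiMSum is the error-weighted combination of wild-type-normalised replicate fold changes, kanamycin over none.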

GCUAAGCAAUAUUACGGGAU
self-splicing fitness (ln) (30 °C): -2.86 ± 0.1 | self-splicing fitness (ln) (37 °C): -0.821 ± 0.081

GCUAAGCAAUAUUACGGGGA
self-splicing fitness (ln) (30 °C): -1.74 ± 0.17 | self-splicing fitness (ln) (37 °C): -1.55 ± 0.21

GCUAAGCAAUAUUACGGUUC
self-splicing fitness (ln) (30 °C): -1.72 ± 0.097 | self-splicing fitness (ln) (37 °C): -0.788 ± 0.11

GCUAAGCAAUAUUACGGUUG
self-splicing fitness (ln) (30 °C): -2.99 ± 0.092 | self-splicing fitness (ln) (37 °C): -2.42 ± 0.098

GCUAAGCAAUAUUACGUAAA
self-splicing fitness (ln) (30 °C): -0.877 ± 0.068 | self-splicing fitness (ln) (37 °C): -0.32 ± 0.091

GCUAAGCAAUAUUACGUACA
self-splicing fitness (ln) (30 °C): -1.38 ± 0.1 | self-splicing fitness (ln) (37 °C): -0.974 ± 0.13

GCUAAGCAAUAUUACGUACU
self-splicing fitness (ln) (30 °C): -0.353 ± 0.051 | self-splicing fitness (ln) (37 °C): -0.348 ± 0.068

GCUAAGCAAUAUUACGUAGU
self-splicing fitness (ln) (30 °C): -4.17 ± 0.31 | self-splicing fitness (ln) (37 °C): -2.32 ± 0.19

GCUAAGCAAUAUUACGUAUU
self-splicing fitness (ln) (30 °C): -1.16 ± 0.079 | self-splicing fitness (ln) (37 °C): -1.02 ± 0.11

GCUAAGCAAUAUUACGUUUC
self-splicing fitness (ln) (30 °C): -3 ± 0.16 | self-splicing fitness (ln) (37 °C): -0.945 ± 0.12

GCUAAGCAAUAUUACGUUUU
self-splicing fitness (ln) (30 °C): -2 ± 0.093 | self-splicing fitness (ln) (37 °C): -0.945 ± 0.1

GCUCAGCAAUAUUACGCAGA
self-splicing fitness (ln) (30 °C): -3.72 ± 0.2 | self-splicing fitness (ln) (37 °C): -2.88 ± 0.2

GCUCAGCAAUAUUACGCAUG
self-splicing fitness (ln) (30 °C): -1.66 ± 0.1 | self-splicing fitness (ln) (37 °C): -1.49 ± 0.1

GCUCAGCAAUAUUACGCCAU
self-splicing fitness (ln) (30 °C): -3.28 ± 0.48 | self-splicing fitness (ln) (37 °C): -2.26 ± 0.36

GCUCAGCAAUAUUACGCCCU
self-splicing fitness (ln) (30 °C): -1.18 ± 0.19 | self-splicing fitness (ln) (37 °C): 0.764 ± 0.18

GCUCAGCAAUAUUACGCCGG
self-splicing fitness (ln) (30 °C): -2.03 ± 0.15 | self-splicing fitness (ln) (37 °C): -0.855 ± 0.17

GCUCAGCAAUAUUACGCCUC
self-splicing fitness (ln) (30 °C): -1.49 ± 0.2 | self-splicing fitness (ln) (37 °C): 0.48 ± 0.22

GCUCAGCAAUAUUACGCCUG
self-splicing fitness (ln) (30 °C): -2.66 ± 0.26 | self-splicing fitness (ln) (37 °C): -2.42 ± 0.32

GCUCAGCAAUAUUACGCGAA
self-splicing fitness (ln) (30 °C): -0.998 ± 0.11 | self-splicing fitness (ln) (37 °C): -0.98 ± 0.12

GCUCAGCAAUAUUACGCGCG
self-splicing fitness (ln) (30 °C): -1.03 ± 0.071 | self-splicing fitness (ln) (37 °C): -0.194 ± 0.091

GCUCAGCAAUAUUACGGAUC
self-splicing fitness (ln) (30 °C): -0.0202 ± 0.09 | self-splicing fitness (ln) (37 °C): -0.0789 ± 0.11

GCUCAGCAAUAUUACGGAUU
self-splicing fitness (ln) (30 °C): -0.53 ± 0.051 | self-splicing fitness (ln) (37 °C): 0.362 ± 0.075

GCUCAGCAAUAUUACGGCCC
self-splicing fitness (ln) (30 °C): -1.13 ± 0.078 | self-splicing fitness (ln) (37 °C): -0.029 ± 0.1

GCUCAGCAAUAUUACGGCUU
self-splicing fitness (ln) (30 °C): -0.675 ± 0.066 | self-splicing fitness (ln) (37 °C): -0.385 ± 0.071

GCUCAGCAAUAUUACGGGAU
self-splicing fitness (ln) (30 °C): -1.16 ± 0.097 | self-splicing fitness (ln) (37 °C): -0.195 ± 0.11

GCUCAGCAAUAUUACGGUCC
self-splicing fitness (ln) (30 °C): -0.681 ± 0.065 | self-splicing fitness (ln) (37 °C): 0.158 ± 0.087

GCUCAGCAAUAUUACGUAAG
self-splicing fitness (ln) (30 °C): -0.791 ± 0.043 | self-splicing fitness (ln) (37 °C): -0.374 ± 0.067

GCUCAGCAAUAUUACGUAGU
self-splicing fitness (ln) (30 °C): -0.46 ± 0.059 | self-splicing fitness (ln) (37 °C): -0.522 ± 0.075

GCUCAGCAAUAUUACGUGCC
self-splicing fitness (ln) (37 °C): -2.56 ± 0.23

GCUGAGCAAUAUUACGAAAG
self-splicing fitness (ln) (30 °C): -1.75 ± 0.2 | self-splicing fitness (ln) (37 °C): -1.46 ± 0.23

GCUGAGCAAUAUUACGACUA
self-splicing fitness (ln) (30 °C): -1.55 ± 0.22 | self-splicing fitness (ln) (37 °C): -1.72 ± 0.21

GCUGAGCAAUAUUACGAGAU
self-splicing fitness (ln) (30 °C): -3.06 ± 0.34 | self-splicing fitness (ln) (37 °C): -2.09 ± 0.31

GCUGAGCAAUAUUACGAGCG
self-splicing fitness (ln) (30 °C): -0.822 ± 0.23 | self-splicing fitness (ln) (37 °C): -0.795 ± 0.21

GCUGAGCAAUAUUACGAGUA
self-splicing fitness (ln) (30 °C): -2.25 ± 0.31 | self-splicing fitness (ln) (37 °C): -1.72 ± 0.35

GCUGAGCAAUAUUACGAUAC
self-splicing fitness (ln) (30 °C): -1.15 ± 0.35 | self-splicing fitness (ln) (37 °C): 0.491 ± 0.22

GCUGAGCAAUAUUACGAUCC
self-splicing fitness (ln) (30 °C): -1.34 ± 0.15 | self-splicing fitness (ln) (37 °C): 0.743 ± 0.24

GCUGAGCAAUAUUACGCAUC
self-splicing fitness (ln) (30 °C): -1.72 ± 0.26 | self-splicing fitness (ln) (37 °C): -0.374 ± 0.33

GCUGAGCAAUAUUACGCAUU
self-splicing fitness (ln) (30 °C): -2.67 ± 0.13 | self-splicing fitness (ln) (37 °C): -1.63 ± 0.2

GCUGAGCAAUAUUACGCCUG
self-splicing fitness (ln) (30 °C): -1.28 ± 0.23

GCUGAGCAAUAUUACGCGUG
self-splicing fitness (ln) (30 °C): -1.54 ± 0.11 | self-splicing fitness (ln) (37 °C): -0.878 ± 0.13

GCUGAGCAAUAUUACGCUCG
self-splicing fitness (ln) (30 °C): -2.7 ± 0.36 | self-splicing fitness (ln) (37 °C): -0.729 ± 0.26

GCUGAGCAAUAUUACGGAAC
self-splicing fitness (ln) (30 °C): -2.25 ± 0.3 | self-splicing fitness (ln) (37 °C): -0.857 ± 0.3

GCUGAGCAAUAUUACGGACG
self-splicing fitness (ln) (30 °C): -0.688 ± 0.1 | self-splicing fitness (ln) (37 °C): -0.674 ± 0.11

GCUGAGCAAUAUUACGGACU
self-splicing fitness (ln) (30 °C): -2.6 ± 0.36 | self-splicing fitness (ln) (37 °C): -1.36 ± 0.24

GCUGAGCAAUAUUACGGUAA
self-splicing fitness (ln) (30 °C): -3.07 ± 0.29 | self-splicing fitness (ln) (37 °C): -2.44 ± 0.23

GCUGAGCAAUAUUACGGUAU
self-splicing fitness (ln) (30 °C): -2.63 ± 0.2 | self-splicing fitness (ln) (37 °C): -2.41 ± 0.2

GCUGAGCAAUAUUACGGUCC
self-splicing fitness (ln) (30 °C): -2.99 ± 0.28 | self-splicing fitness (ln) (37 °C): -0.889 ± 0.26

GCUGAGCAAUAUUACGGUCG
self-splicing fitness (ln) (30 °C): -2.59 ± 0.17 | self-splicing fitness (ln) (37 °C): -2.24 ± 0.22
